In patent US20260308264 (published 2026):
Changes are numbered by the printed parent chain.

T1: IL-5Rα (human, UniProt Q01344)
T1 chain: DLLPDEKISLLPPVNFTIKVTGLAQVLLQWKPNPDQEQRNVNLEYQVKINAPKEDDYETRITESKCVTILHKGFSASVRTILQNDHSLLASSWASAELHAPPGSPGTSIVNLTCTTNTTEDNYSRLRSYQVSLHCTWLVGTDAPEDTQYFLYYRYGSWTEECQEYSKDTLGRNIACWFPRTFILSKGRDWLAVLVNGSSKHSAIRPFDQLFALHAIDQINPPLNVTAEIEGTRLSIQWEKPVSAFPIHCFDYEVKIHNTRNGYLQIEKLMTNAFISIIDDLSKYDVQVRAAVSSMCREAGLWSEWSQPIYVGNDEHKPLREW

B1: IL-5Rα×CD3ε scFv(L)/scFv-Fc (CD3ε arm) (antibody, V domains shown)
VH: EVQLVESGGGLVQPKGSLKLSCAASGFTFNTYAMNWVRQAPGKGLEWVARIRSKYNNYATYYADSVKDRFTISRDDSQSILYLQMNNLKTEDTAMYYCVRHGNFGNSYVSWFAYWGQGTLVTVSS
VL: QAVVTQESALTTSPGETVTLTCRSSTGAVTTSNYANWVQEKPDHLFTGLIGGTNKRAPGVPARFSGSLIGDKAALTITGAQTEDEAIYFCALWYSNLWVFGGGTKLTVL
B2: IL-5Rα×CD3ε BiTE(L)/scFv-Fc (CD3ε arm) (antibody, V domains shown)
VH: B1 VH
VL: B1 VL
B3: IL-5Rα×CD3ε IgG analog (CD3ε arm) (antibody, V domains shown)
VH: B1 VH
VL: B1 VL
B4: IL-5Rα×CD3ε Diabody-Fc (CD3ε arm) (antibody, V domains shown)
VH: B1 VH
VL: B1 VL
B5: Benralizumab (antibody, V domains shown)
VH: EVQLVQSGAEVKKPGASVKVSCKASGYTFTSYVIHWVRQRPGQGLAWMGYINPYNDGTKYNERFKGKVTITSDRSTSTVYMELSSLRSEDTAVYLCGREGIRYYGLLGDYWGQGTLVTVSS
VL: DIQMTQSPSSLSASVGDRVTITCGTSEDIINYLNWYQQKPGKAPKLLIYHTSRLQSGVPSRFSGSGSGTDFTLTISSLQPEDFATYYCQQGYTLPYTFGQGTKVEIK
B6: 5R65 (antibody, V domains shown)
VH: QVQLVQSGAEVKKPGSSVKVSCKASGYTFTSYWINWVRQAPGQGLEWIGHIYPNKNENYYNHKFKDKATLTVDKSTNTAYMELSSLRSEDTAVYYCTRDYYGRSYYYAMDYWGQGTTLTVSS
VL: DIQMTQSPSTLSASVGDRVTITCKASQNVGTAVAWYQQKPGKAPKLLIYWASTRHTGVPDRFSGSGSGTDFTLTISSLQPDDFATYYCQQFGRYPYTFGSGTKVEVK
B7: 5R65.7 (antibody, V domains shown)
VH: B6 VH with D99E, Y100F, S104Q, Y107Q
VL: B6 VL
B8: IL-5Rα×CD3ε BiTE(L)/scFv-Fc (IL-5Rα arm) (antibody, V domains shown)
VH: B6 VH with D99E, Y100F, S104Q, Y107Q
VL: B6 VL
B9: IL-5Rα×CD3ε scFv(L)/scFv-Fc (IL-5Rα arm) (antibody, V domains shown)
VH: B6 VH with D99E, Y100F, S104Q, Y107Q
VL: B6 VL
B10: IL-5Rα×CD3ε Diabody-Fc (IL-5Rα arm) (antibody, V domains shown)
VH: B6 VH with D99E, Y100F, S104Q, Y107Q
VL: B6 VL
B11: IL-5Rα×CD3ε IgG analog (IL-5Rα arm) (antibody, V domains shown)
VH: B6 VH with D99E, Y100F, S104Q, Y107Q
VL: B6 VL

Target: CD3ε (human, UniProt P07766)
Test: BLI

Sequence of CD3ε (P07766 23-207): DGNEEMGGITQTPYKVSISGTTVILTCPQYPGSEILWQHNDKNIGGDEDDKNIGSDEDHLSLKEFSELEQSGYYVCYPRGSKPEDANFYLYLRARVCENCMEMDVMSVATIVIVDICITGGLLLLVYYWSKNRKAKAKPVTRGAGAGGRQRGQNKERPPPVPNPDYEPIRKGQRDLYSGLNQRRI

Kd | Binder
3.61 nM | B1
4.62 nM | B2
1.71 nM | B3
8.41 nM | B4

Target: T1, IL-5Rα
Test: not given

Kd | Binder
26.8 nM | B5
14.5 nM | B6
4.64 nM | B7

Target: T1, IL-5Rα
Test: BLI

Kd | Binder
22.9 nM | B8
59.8 nM | B9
123 nM | B10
30.5 nM | B11
